The target of the test is ubiquitin (UniProt P0CG48 1-76). Nature of the test: NMR titration.

B1: RAD23A UBA1 domain (aa 160–205) (domain or fragment)
chain: not shown
On to B1, for which the binding result was “binds”.

The values above are taken from article PMC10842004 (Journal of molecular biology, 2023).
